No end group written: not given here. *: point of attachment. Biotin = O=C1N[C@H]2[C@H](CS[C@H]2CCCCC(=O)*)N1
Columns and labels:
[1] = target: T1, alpha-synuclein peptide 1-61 (human); test: peptide ELISA
T1 construct: synthetic peptide coated on plate

[2] = target: T2, alpha-synuclein peptide 1-95 (human); test: peptide ELISA
T2 construct: synthetic peptide coated on plate

[3] = target: alpha-synuclein peptide 1-112 (human); test: peptide ELISA
asyn_113-127_115A [4] = target: T3, asyn_113-127_115A (human); test: Ala-scan peptide ELISA, row D, run 2
T3 construct: substitution is already in the entry; also called pep4
T3 peptide: Biotin-LEAMPVDPDNEAYEM

asyn_113-127_114A [5] = target: T4, asyn_113-127_114A (human); test: Ala-scan peptide ELISA, row D, run 2
T4 construct: substitution is already in the entry; also called pep3
T4 peptide: Biotin-LADMPVDPDNEAYEM

asyn_113-127_122A [6] = target: T5, asyn_113-127_122A (human); test: Ala-scan peptide ELISA, row D, run 2
T5 construct: substitution is already in the entry; also called pep11
T5 peptide: Biotin-LEDMPVDPDAEAYEM

asyn_113-127_124G [7] = target: T6, asyn_113-127_124G (human); test: Ala-scan peptide ELISA, row D, run 2
T6 construct: substitution is already in the entry; also called pep13
T6 peptide: Biotin-LEDMPVDPDNEGYEM

asyn_113-127_119A [8] = target: T7, asyn_113-127_119A (human); test: Ala-scan peptide ELISA, row D, run 2
T7 construct: substitution is already in the entry; also called pep8
T7 peptide: Biotin-LEDMPVAPDNEAYEM

asyn_113-127_127A [9] = target: T8, asyn_113-127_127A (human); test: Ala-scan peptide ELISA, row D, run 2
T8 construct: substitution is already in the entry; also called pep17
T8 peptide: Biotin-LEDMPVDPDNEAYEA

asyn_113-127_124P [10] = target: T9, asyn_113-127_124P (human); test: Ala-scan peptide ELISA, row D, run 2
T9 construct: substitution is already in the entry; also called pep14
T9 peptide: Biotin-LEDMPVDPDNEPYEM

asyn_113-127_126A [11] = target: T10, asyn_113-127_126A (human); test: Ala-scan peptide ELISA, row D, run 2
T10 construct: substitution is already in the entry; also called pep16
T10 peptide: Biotin-LEDMPVDPDNEAYAM

[12] = target: T11, biotinylated human alpha-synuclein (human, UniProt P37840 1-140); test: Ala-scan peptide ELISA, row D, run 2
[13] = target: human alpha-synuclein pre-formed fibrils (human, UniProt P37840 1-140); test: competition ELISA: fibrils titrated in solution against 0.6 nM antibody, free antibody read on aSyn-coated plate
asyn_113-127_113A [14] = target: T12, asyn_113-127_113A (human); test: Ala-scan peptide ELISA, row B, run 2
T12 construct: substitution is already in the entry; also called pep2
T12 peptide: Biotin-AEDMPVDPDNEAYEM

asyn_113-127_125A [15] = target: T13, asyn_113-127_125A (human); test: Ala-scan peptide ELISA, row B, run 2
T13 construct: substitution is already in the entry; also called pep15
T13 peptide: Biotin-LEDMPVDPDNEAAEM

asyn_113-127_119A [16] = target: T7, asyn_113-127_119A; test: Ala-scan peptide ELISA, row B, run 2
asyn_113-127_118A [17] = target: T14, asyn_113-127_118A (human); test: Ala-scan peptide ELISA, row B, run 2
T14 construct: substitution is already in the entry; also called pep7
T14 peptide: Biotin-LEDMPADPDNEAYEM

asyn_113-127_126A [18] = target: T10, asyn_113-127_126A; test: Ala-scan peptide ELISA, row B, run 2
asyn_113-127_115A [19] = target: T3, asyn_113-127_115A; test: Ala-scan peptide ELISA, row C, run 2
asyn_113-127_113A [20] = target: T12, asyn_113-127_113A; test: Ala-scan peptide ELISA, row C, run 2
asyn_113-127_125A [21] = target: T13, asyn_113-127_125A; test: Ala-scan peptide ELISA, row C, run 2
asyn_113-127_114A [22] = target: T4, asyn_113-127_114A; test: Ala-scan peptide ELISA, row C, run 2
asyn_113-127_122A [23] = target: T5, asyn_113-127_122A; test: Ala-scan peptide ELISA, row C, run 2
asyn_113-127_124G [24] = target: T6, asyn_113-127_124G; test: Ala-scan peptide ELISA, row C, run 2
asyn_113-127_121A = target: T15, asyn_113-127_121A (human); test: Ala-scan peptide ELISA, row C, run 2
T15 construct: substitution is already in the entry; also called pep10
T15 peptide: Biotin-LEDMPVDPANEAYEM

asyn_113-127_120A = target: T16, asyn_113-127_120A (human); test: Ala-scan peptide ELISA, row C, run 2
T16 construct: substitution is already in the entry; also called pep9
T16 peptide: Biotin-LEDMPVDADNEAYEM

asyn_113-127_123A = target: T17, asyn_113-127_123A (human); test: Ala-scan peptide ELISA, row C, run 2
T17 construct: substitution is already in the entry; also called pep12
T17 peptide: Biotin-LEDMPVDPDNAAYEM

asyn_113-127_119A [25] = target: T7, asyn_113-127_119A; test: Ala-scan peptide ELISA, row C, run 2
asyn_113-127 = target: T18, asyn_113-127 (human); test: Ala-scan peptide ELISA, row C, run 2
T18 construct: also called pep1
T18 peptide: Biotin-LEDMPVDPDNEAYEM

asyn_113-127_127A [26] = target: T8, asyn_113-127_127A; test: Ala-scan peptide ELISA, row C, run 2
asyn_113-127_124P [27] = target: T9, asyn_113-127_124P; test: Ala-scan peptide ELISA, row C, run 2
asyn_113-127_118A [28] = target: T14, asyn_113-127_118A; test: Ala-scan peptide ELISA, row C, run 2
asyn_113-127_116A = target: T19, asyn_113-127_116A (human); test: Ala-scan peptide ELISA, row C, run 2
T19 construct: substitution is already in the entry; also called pep5
T19 peptide: Biotin-LEDAPVDPDNEAYEM

asyn_113-127_117A = target: T20, asyn_113-127_117A (human); test: Ala-scan peptide ELISA, row C, run 2
T20 construct: substitution is already in the entry; also called pep6
T20 peptide: Biotin-LEDMAVDPDNEAYEM

asyn_113-127_126A [29] = target: T10, asyn_113-127_126A; test: Ala-scan peptide ELISA, row C, run 2
[30] = target: T11, biotinylated human alpha-synuclein; test: Ala-scan peptide ELISA, row C, run 2

antibody concentration at which ELISA is positive [1]: > 2600 ng/mL | antibody concentration at which ELISA is positive [2]: > 2600 ng/mL | antibody concentration at which ELISA is positive [3]: > 2600 ng/mL | A450 (asyn_113-127_115A [4]): 0.266 OD | A450 (asyn_113-127_114A [5]): 0.348 OD | A450 (asyn_113-127_122A [6]): 0.051 OD | A450 (asyn_113-127_124G [7]): 0.287 OD | A450 (asyn_113-127_119A [8]): 0.046 OD | A450 (asyn_113-127_127A [9]): 0.414 OD | A450 (asyn_113-127_124P [10]): 0.05 OD | A450 (asyn_113-127_126A [11]): 0.342 OD | A450 [12]: 0.767 OD | IC50 [13]: 1.73 nM | A450 (asyn_113-127_113A [14]): 0.407 OD | A450 (asyn_113-127_125A [15]): 0.057 OD | A450 (asyn_113-127_119A [16]): 0.056 OD | A450 (asyn_113-127_118A [17]): 0.382 OD | A450 (asyn_113-127_126A [18]): 0.392 OD | A450 (asyn_113-127_115A [19]): 0.306 OD | A450 (asyn_113-127_113A [20]): 0.377 OD | A450 (asyn_113-127_125A [21]): 0.052 OD | A450 (asyn_113-127_114A [22]): 0.367 OD | A450 (asyn_113-127_122A [23]): 0.051 OD | A450 (asyn_113-127_124G [24]): 0.295 OD | A450 (asyn_113-127_121A): 0.281 OD | A450 (asyn_113-127_120A): 0.223 OD | A450 (asyn_113-127_123A): 0.377 OD | A450 (asyn_113-127_119A [25]): 0.046 OD | A450 (asyn_113-127): 0.307 OD | A450 (asyn_113-127_127A [26]): 0.443 OD | A450 (asyn_113-127_124P [27]): 0.055 OD | A450 (asyn_113-127_118A [28]): 0.44 OD | A450 (asyn_113-127_116A): 0.393 OD | A450 (asyn_113-127_117A): 0.441 OD | A450 (asyn_113-127_126A [29]): 0.369 OD | A450 [30]: 0.976 OD
B1: 20H4 (antibody, rat IgG2b, V domains shown)
VH: AVQLVESGGGLVQPKESLKISCAASGFTFSNAAMYWVRQAPGKGLELLARIRTKPNNYATYHADSVKGRFTISRDDSQSMVYLHMGNLKTEDTAMYYCTADMATGDYWGPGVMVTVSS
VL: DIQMTQSPPVLSVSVGDRVTLSCKASQNINKNLDWYQQKHGEAPKPLIYSTNNLQTGVPSRFSGSGSGTDYTLTISSLQPEDVATYYCYQYKSAWTFGGGTKLELR
notes: also called clone 20H4; rat 20H4
